T1: human Met-Fc chimera (human, UniProt P08581 25-932)
T1 chain: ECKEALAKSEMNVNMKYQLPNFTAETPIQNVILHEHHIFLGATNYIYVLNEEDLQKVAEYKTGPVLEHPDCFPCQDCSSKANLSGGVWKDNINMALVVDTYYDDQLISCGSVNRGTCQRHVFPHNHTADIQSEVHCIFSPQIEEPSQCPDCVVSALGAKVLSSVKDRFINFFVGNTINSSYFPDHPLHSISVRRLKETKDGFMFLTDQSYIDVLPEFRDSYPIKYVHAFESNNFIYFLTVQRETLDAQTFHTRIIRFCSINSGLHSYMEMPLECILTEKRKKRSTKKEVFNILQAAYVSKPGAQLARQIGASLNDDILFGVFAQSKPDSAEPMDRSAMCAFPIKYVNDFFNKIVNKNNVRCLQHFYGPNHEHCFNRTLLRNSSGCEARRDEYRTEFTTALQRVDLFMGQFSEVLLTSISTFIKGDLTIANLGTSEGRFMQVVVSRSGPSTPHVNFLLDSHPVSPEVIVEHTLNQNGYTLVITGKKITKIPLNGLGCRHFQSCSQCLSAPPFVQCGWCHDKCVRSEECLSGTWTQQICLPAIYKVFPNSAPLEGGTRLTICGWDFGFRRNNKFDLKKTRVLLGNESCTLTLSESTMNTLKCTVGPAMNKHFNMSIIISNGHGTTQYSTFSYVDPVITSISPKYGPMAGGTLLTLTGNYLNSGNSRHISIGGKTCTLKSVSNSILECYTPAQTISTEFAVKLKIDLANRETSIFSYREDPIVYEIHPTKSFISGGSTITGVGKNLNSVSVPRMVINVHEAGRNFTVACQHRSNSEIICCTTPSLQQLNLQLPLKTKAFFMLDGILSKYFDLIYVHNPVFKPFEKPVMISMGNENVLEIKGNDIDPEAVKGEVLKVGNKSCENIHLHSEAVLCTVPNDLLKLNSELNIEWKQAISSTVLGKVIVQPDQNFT


Biological target: T1, human Met-Fc chimera
Test: ELISA

Kd [nM]	Binder
0.686	hOA-DN30-cl04H08 (antibody) light: DIVLTQSPASLAVSLGERATINCKASQSVDYDGGSYMSWYQQRPGQPPKLLIYAASNLESGVPDRFSGSGSGTDFTLTIHSLQAEDVATYYCQQSYEDPLTFGGGTKVEIKRTVAAPSVFIFPPSDEQLKSGTASVVCLLNNFYPREAKVQWKVDNALQSGNSQESVTEQDSKDSTYSLSSTLTLSKADYEKHKVYACEVTHQGLSSPVTKSFNRGEC heavy: not shown not shown
0.21	MvDN30 (Fab, V domains shown) VH: QVQLQQPGTELVKPGASVKLSCKASGYTFTSYWIHWVKQRPGQGLEWIGEINPSSGRTNYNEKFKNKVTVTVDKSSTTAYMQLSNLTSEDSAVYYCASRGYWGQGTTLTVSS VL: DIVLTQSPASLAVSLGQRATISCKASQSVDYDGGSYMSWFQQRPGQPPKLLISAASNLESGIPARFSGSGSGTDFTLNIHPVEEEDVATYYCQQSYEDPLTFGAGTKVEIK

Reference: US20210395372A1 (published 2021)
